According to patent publication US11571480B2, “Multi-ligand drug conjugates and uses thereof” (priority 2015, dated 2023):
Numbered stars: 1 amine (or outer) side, 2 acyl side, 3 side chain; on linkers, the order of the positions; unused ones are H or OH. Bridge positions count the residues as written; N and C are the ends. Square brackets hold non-standard residues; d marks the D form. Peptide text beside a SMILES is read from it. I, II: the chains in the order shown. * marks the point of attachment. Hexanoyl(6-succinimido-3yl) = O=C1CC([*:1])C(=O)N1CCCCCC(=O)[*:2]; Dolaproine = CO[C@@H]([C@@H]1CCCN1)[C@@H](C)C(=O)O; Dil = CC[C@H](C)[C@H](NC)[C@@H](CC(=O)O)OC; PABC = O=C(OCc1ccc(N[*:1])cc1)[*:2]; X1 = C[C@@H](N*)[C@@H](O)c1ccccc1; Cit = NC(=O)NCCC[C@H](N)C(=O)O; NMeV = CN[C@H](C(=O)O)C(C)C

Legend:
[1] = tested on: Transplanted HCC1954 tumor; experiment: Inhibitory assay of conjugates LDC10B and LDC10H against xenograf tumors; type: in vivo, nude mice; details: 10 mg/kg
Description: (§1) Animal: nude mice, aged 6-8 weeks, female
(§2) 1) human large cell lung cancer cell H460, human lung cancer cell A549, ovarian cancer cell SKOV3, and breast cancer cell line HCC1954 were incubated at 37° C., 5% CO2 in IMDM medium containing 10% fetal bovine serum, the cells were passaged every 2-3 days.
(§3) 2) generation of tumors: 7×10^6 tumor cells were injected subcutaneously into the back of nude mice, and the mice were grouped for treatment after the tumor sizes were as large as about 100-200 mm^3.
(§4) 3) treatment: 3 mice/group, treated with LDC10B, LDC10H, as well as controls MMAE and PBS with doses of 5 and 10 mg/kg every 5 days, three injections.
(§5) 4) the physical performance, body weights and tumor sizes of the animals were monitored. The number of animal death was recorded during the experiment.

[2] = tested on: Transplanted H460 tumor; experiment: as above; type: in vivo, nude mice
Description: as §1, §2, §3, §4, §5

[3] = Detection of conjugate concentrations in xenograf tumor models (serum, anti-MMAE ELISA); type: in vivo, nude mice; details: 10 mg/kg, peritoneal injection
Description: as §1
1) Human ovarian cancer cell SKOV3 and breast cancer cell line HCC1954 were incubated at 37° C., 5% CO2 in IMDM medium containing 10% fetal bovine serum, the cells were passaged every 2-3 days.
2) generation of tumors: 7×10^6 tumor cells were injected subcutaneously into the back of nude mice, and the mice were grouped for treatment after the tumor sizes were as large as about 100˜200 mm^3.
3) treatment: 3 mice/group, 10 mg/kg, peritoneal injection.
4) blood collection: the time for blood collection before treatment was set as 0, blood was collected at 20 min, 2 h, 4 h, and 24 h after treatment. The blood was centrifuged to collect serum, which was frozen and preserved.
5) Detection: the total amount of MMAE, LDC10B, LDC10H, as well as the MMAE metabolites of LDC10B and LDC10H in serum were detected by mice anti-MMAE ELISA kit.

[4] = tested on: human lung cancer cell H460; experiment: Cytotoxicity test of conjugate LDC10H; type: cell-based; details: H460, incubated 15-30 min, then 2-3 days
Description: (§6) Culture medium: RPMI 1640 Medium, no folic acid
(§7) 1) human lung cancer cell H1299, ovarian cancer cell SKOV3, breast cancer cell line HCC1954, and human lung cancer cell H460 were incubated at 37° C., 5% CO2 in RPMI 1640 medium containing 10% fetal bovine serum, the cells were passaged every 2-3 days.
(§8) 2) human lung cancer cell H1299, ovarian cancer cell SKOV3, breast cancer cell line HCC1954, and human lung cancer cell H460 were plated at 1×10^3 cells per well (96-well plate) and incubated for 8-12 h at 37° C., 5% CO2.
(§9) 3) Stock solutions of LDC conjugates or control were prepared in PBS solution. 100 μL/well of serially diluted LDC conjugates or control was added to the cells in the plate and incubated for 15-30 min at 37° C., 5% CO2. The culture medium in the wells was then removed by aspiration and the cells were incubated in fresh culture medium without conjugates (150 μL/well) for 2-3 days at 37° C., 5% CO2.
(§10) 4) CellTiter 96® Aqueous One Solution Cell Proliferation Assay (Promega) was added to each well to measure the amount of […] cells, and the plate was incubated in an incubator for 1 h at 37° C., 5% CO2.
(§11) 5) the plate was read at 490 nm on a microplate reader, and the cell survivals were compared for cells with or without the treatment of LDC conjugates. The LDC drug concentrations that are required for 50% cell death (IC50 values) were determined.

[5] = tested on: human lung cancer cell H1299; experiment: Cytotoxicity test of conjugate LDC10H; type: cell-based; details: H1299, incubated 15-30 min, then 2-3 days
Description: as §6, §7, §8, §9, §10, §11

[6] = tested on: breast cancer cell line HCC1954; experiment: Cytotoxicity test of conjugate LDC10H; type: cell-based, human; details: HCC1954, incubated 15-30 min, then 2-3 days
Description: as §6, §7, §8, §9, §10, §11

[7] = tested on: ovarian cancer cell SKOV3; experiment: Cytotoxicity test of conjugate LDC10H; type: cell-based, human; details: SKOV3, incubated 15-30 min, then 2-3 days
Description: as §6, §7, §8, §9, §10, §11

With `CC[C@H](C)[C@@H]([C@@H](CC(=O)N1CCC[C@H]1[C@H](OC)[C@@H](C)C(=O)N[C@H](C)[C@@H](O)c1ccccc1)OC)N(C)C(=O)[C@@H](NC(=O)[C@H](C(C)C)N(C)C(=O)OCc1ccc(NC(=O)[C@H](CCCNC(N)=O)NC(=O)[C@@H](NC(=O)CCCCCN2C(=O)CC(SC[C@H](NC(=O)[C@H](CCCNC(=N)N)NC(=O)[C@H](CCCNC(=N)N)NC(=O)[C@H](CCCNC(=N)N)NC(=O)[C@H](CCCNC(=N)N)NC(=O)[C@H](CCCNC(=N)N)NC(=O)[C@H](CCCNC(=N)N)NC(=O)[C@H](CCCNC(=N)N)NC(=O)[C@H](CCCNC(=N)N)NC(=O)[C@@H](N)CCCNC(=N)N)C(=O)N[C@@H](CCCCN)C(=O)N[C@@H](CCC(=O)O)C(=O)N[C@@H](Cc3ccccc3)C(=O)N[C@@H](CC(C)C)C(=O)N[C@@H](Cc3c[nH]cn3)C(=O)N3CCC[C@H]3C(=O)N[C@@H](CO)C(=O)N[C@@H](CCCCN)C(=O)N[C@H](C(=O)N[C@@H](CC(=O)O)C(=O)N[C@@H](CC(C)C)C(=O)N3CCC[C@H]3C(=O)N[C@@H](CCCNC(=N)N)C(=O)O)C(C)C)C2=O)C(C)C)cc1)C(C)C` (stereo partly shown) [LDC10H] (I: H-RRRRRRRRRCKEFLHPSKVDLPR-OH / II: V[Cit][PABC][NMeV]V[Dil][Dolaproine]-X1; linker I:10-II:N via Hexanoyl(6-succinimido-3yl)) the “Body weight of mice” value ([1]; Before Injection) was 22.05 g, the “Body weight of mice” value ([1]; Five days after Injection 1) was 23.32 g and the “Body weight of mice” value ([1]; Five days after Injection 2) was 22.87 g. The “Body weight of mice” value ([1]; Five days after Injection 3) was 22.51 g, the “Body weight of mice” value ([2]; 5 mg/kg, Before Injection) was 23.29 g and the “Body weight of mice” value ([2]; 5 mg/kg, Five days after Injection 1) was 24.26 g. For the same compound, the “Body weight of mice” value ([2]; 5 mg/kg, Five days after Injection 2) was 23.14 g, the “Body weight of mice” value ([2]; 5 mg/kg, Five days after Injection 3) was 23.22 g and the “Body weight of mice” value ([2]; 10 mg/kg, Before Injection) was 23.37 g. The “Body weight of mice” value ([2]; 10 mg/kg, Five days after Injection 1) was 24.39 g, the “Body weight of mice” value ([2]; 10 mg/kg, Five days after Injection 2) was 22.12 g and the “Body weight of mice” value ([2]; 10 mg/kg, Five days after Injection 3) was 23.61 g. It also gave a Concentration in serum ([3]; 20 min) of 770 ng/mL, a Concentration in serum ([3]; 2 h) of 580 ng/mL and a Concentration in serum ([3]; 4 h) of 196 ng/mL. For the same compound, the Concentration in serum ([3]; 24 h) was 0 ng/mL, the “detected in serum at 24 h after treatment (in words)” value ([3]; 24 h) was “none” and the Concentration in serum ([3]; Before Treatment) was 0 ng/mL. The IC50 [4] was 85.3 nM, the IC50 [5] was 90.4 nM and the IC50 [6] was 36 nM. For the same compound, the IC50 [7] was 73.8 nM.
